Source: patent US12692310B2, “ASIC1 channel antagonist antibody” (ShanghaiTech University, priority 2019, dated 2026)

Legend:
Format in all cases: cell-based
[1] = molecular target: T1, hASIC2a (Homo sapiens, UniProt Q16515); assay: Subtype selectivity, FACS binding, transfected CHO-K1 cells
T1 construct: expressed in transfected cells; host or cells: CHO-K1, transient
T1 sequence (Q16515 1-512): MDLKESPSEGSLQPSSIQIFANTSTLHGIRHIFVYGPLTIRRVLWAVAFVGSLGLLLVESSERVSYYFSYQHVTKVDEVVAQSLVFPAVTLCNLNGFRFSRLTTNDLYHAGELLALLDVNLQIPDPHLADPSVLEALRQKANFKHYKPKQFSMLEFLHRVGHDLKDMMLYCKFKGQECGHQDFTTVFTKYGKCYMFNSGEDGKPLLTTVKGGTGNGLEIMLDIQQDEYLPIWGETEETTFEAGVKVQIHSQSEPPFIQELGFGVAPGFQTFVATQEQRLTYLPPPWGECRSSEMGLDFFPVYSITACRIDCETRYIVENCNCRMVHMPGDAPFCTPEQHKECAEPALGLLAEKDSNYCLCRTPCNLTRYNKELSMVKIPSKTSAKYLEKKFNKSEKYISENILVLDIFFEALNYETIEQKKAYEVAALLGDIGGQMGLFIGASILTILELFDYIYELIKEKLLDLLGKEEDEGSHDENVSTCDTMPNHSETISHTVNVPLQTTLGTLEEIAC
Description: To test the species and subtype selectivity of ASC06-IgG1, vectors encoding human ASIC1b-eYFP fusion, rat ASIC1a-eYFP fusion, mouse ASIC1a-eYFP fusion, hASIC2a-eYFP fusion, hASIC2b-eYFP fusion, and hASIC3a-eYFP fusion were constructed. The CHO-K1 cells were transiently transfected with these plasmids. FACS binding assay and immunocytochemistry (ICC) were carried out to determine if ASC06-IgG1 is able to bind to the cell surface-expressed ASIC homologs and isotypes.

[2] = molecular target: T2, hASIC1a (Homo sapiens, UniProt P78348); assay: Steady-state desensitization (SSD) and pH activation of hASIC1a, patch clamp
T2 construct: expressed in transfected cells
T2 sequence (P78348 1-528): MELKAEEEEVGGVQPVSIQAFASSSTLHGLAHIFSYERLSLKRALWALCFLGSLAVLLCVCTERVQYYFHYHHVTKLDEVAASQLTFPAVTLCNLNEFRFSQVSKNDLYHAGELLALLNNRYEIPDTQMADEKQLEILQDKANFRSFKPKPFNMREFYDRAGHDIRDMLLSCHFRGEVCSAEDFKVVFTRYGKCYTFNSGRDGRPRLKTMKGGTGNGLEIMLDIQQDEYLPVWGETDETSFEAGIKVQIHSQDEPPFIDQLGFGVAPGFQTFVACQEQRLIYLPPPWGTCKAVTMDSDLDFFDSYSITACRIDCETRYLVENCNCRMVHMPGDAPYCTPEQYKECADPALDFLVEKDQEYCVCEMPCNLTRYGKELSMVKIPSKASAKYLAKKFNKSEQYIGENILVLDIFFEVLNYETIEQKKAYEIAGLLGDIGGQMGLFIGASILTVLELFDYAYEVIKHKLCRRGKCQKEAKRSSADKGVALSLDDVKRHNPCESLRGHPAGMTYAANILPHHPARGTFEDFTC
Description: For the measurement of steady-state desensitization (SSD), the pH of the conditioning ECF was adjusted to 7.6, 7.4, 7.2, 7.0, and 6.8 (in a HEPES buffer), while the activating ECF was maintained at pH 6.0 (in an MES buffer). For the measurement of pH activation of the hASIC1a in the 6H7 stable cells, the conditioning ECF was fixed at pH 7.6 (in a HEPES buffer), and the pH of the activating ECF was adjusted to 7.4, 7.2, 7.0, 6.8, 6.5, 6.3, and 6.0. The hASIC1a currents were recorded when the stable cell line 6H7 was patched in the presence and absence of 300 nM ASC06-IgG1. The relative currents expressed as fractions of the maximum amplitude on the sensorgram (I/Imax) were calculated and plotted to constitute SSD and pH activation profiles. Each data point represents the average of at least five patched cells.
To understand the mechanism by which ASC06-IgG1 blocked the hASIC1a currents, SSD and pH activation of hASIC1a in the absence and presence of ASC06-IgG1 were examined. The pH50 (a drop in extracellular pH, which can open 50% of the ASIC1a channel) values of the SSD curve and the pH activation curve for hASIC1a were measured and compared with or without 300 nM ASC06-IgG1. As shown in FIGS. 11A-11B, the SSD was induced when applying the conditioning extracellular fluids (ECFs) with different pH values and the activating ECF at pH 6.0, whereas the pH activation curve was constructed when applying the activating ECFs with varying pH values and the conditioning ECF at pH 7.6.

[3] = test system: hASIC1a-eYFP stable cells (6H7); assay: Acidosis-induced cell death, CCK8 and LDH release
Description: Acidosis-Induced Cell Death. The hASIC1a-eYFP stable cells (6H7) and CHO-K1 cells were seeded in a 96-well plate at a density of 10,000 cells per well 1 d before treatment. ECF solutions at pH 5.5, 6.0, and 7.4 were used to treat the cells at 37° C. for 6 h. To test the rescuing effect of ASC06-IgG1, the antibody was dissolved in an acidic ECF (pH 5.5) to make the final antibody concentrations of 0, 50, 100, 300, 500, and 1,000 nM. The 6H7 cells were first preincubated with the antibody at the corresponding concentrations at 37° C. for 30 min in cell media. After replacing the cell media with the corresponding acidic ECFs, the cells were incubated at 37° C. for 6 h, washed with a PBS buffer (pH 7.4), and then cultured in a 1% FBS DMEM/F-12K media overnight. The supernatants of the overnight culture were collected for the LDH release measurement using a LDH Assay kit (#88953; Thermo Fisher Scientific). The cells viability was determined using the CCK-8 assay kit (#CK04; Dojindo).
Extracellular acidosis in stroke or ischemia-reperfusion injury is known to induce the activation of ASIC1a channels, which leads to neuronal death in the central nervous system, most likely through transient increase of intracellular calcium and related cell signaling mediated by ASIC1a. The survival of hASIC1a overexpressing stable cells was assessed by measuring the enzymatic activities of cytoplasmic dehydrogenases (CCK8 assay) and the concentrations of lactate dehydrogenase (LDH) secreted into the cell media, which reflect the cell viability and cytotoxicity, respectively. […] In the presence of […] ASC06-IgG1, approximately 45% of the ASIC1a expressing stable cells survived at pH 5.5 comparing to about a 5% survival rate in the absence of the antibody. Consistent with CCK8 result, the concentration of LDH released into cell media decreased after the addition of ASC06-IgG1 is also in a dose-dependent manner (FIG. 7D).

B1: ASC06-IgG1: ASC06 antibody converted into a full length IgG1 form (antibody, V domains shown)
VH: QVQLQQSGGGLVQPGGSLRLSCAASGFTFSSYAMSWVRQAPGKGLEWVSAISGSGGSTYYADSVKGRFTISRDNSKNTLYLQMNSLRAEDTAVYYCAKDSFYGYSKGDWGQGTLVTVSS
VL: QSALTQPASVSGSPGQSITISCTGTSSDVGAYNYVSWYQQQPGKAPKLMIYGVSNRPSGVSNRFSGSKSGNAASLTISGLQAEDEADYYCSSYTSSSTYVFGTGTKLTVLG
- FACS recognition of hASIC2a [1]: not
- mechanism of block relative to proton concentration [2]: noncompetitive with the proton concentration
- change of pH50 value of SSD ([2]; 300 nM, activating ECF pH 6.0): No significant differences
- change of pH50 value of pH activation ([2]; 300 nM, conditioning ECF pH 7.6): No significant differences
- interference with SSD and activation of ASIC1a ([2]; 300 nM, representative traces): interferes with neither SSD nor activation
- survival of ASIC1a expressing stable cells ([3]; 1,000 nM antibody, pH 5.5, CCK8): approximately 45%
- protective effect against acidosis-induced cell death, in words ([3]; pH 5.5): significant dose-dependent protective effect
- concentration of LDH released into cell media ([3]; pH 5.5, dose-dependent): decreased
